What was measured:
[1] = molecular target: C3 mutant with tyr(Y) at position 1303 and glutamine at 1320
[2] = molecular target: mutant C3M-51 (Arg1320->Gln)
[3] = molecular target: C3 mutant with trp(W) at position 1303 and glutamine at 1320
[4] = molecular target: C3 mutant with gly(G) at position 1303 and glutamine at 1320
[5] = molecular target: mutant C3M-I23 (Arg1303->Gln)
[6] = molecular target: wild-type human C3 (expressed from the PC3 coding sequence)
[7] = molecular target: mutant C3M-26 (Arg1303->Gln, Arg1320->Gln)
[8] = molecular target: E1Q2 mutant C3 (Arg1303 changed to Glu, plus Arg1320 changed to Gln)
[9] = molecular target: C3 mutant with cys(C) at position 1303 and glutamine at 1320

mutant C3M-51 (Arg1320->Gln), sequence (chain, as listed by the source, stated change not applied, chain 1 of 2): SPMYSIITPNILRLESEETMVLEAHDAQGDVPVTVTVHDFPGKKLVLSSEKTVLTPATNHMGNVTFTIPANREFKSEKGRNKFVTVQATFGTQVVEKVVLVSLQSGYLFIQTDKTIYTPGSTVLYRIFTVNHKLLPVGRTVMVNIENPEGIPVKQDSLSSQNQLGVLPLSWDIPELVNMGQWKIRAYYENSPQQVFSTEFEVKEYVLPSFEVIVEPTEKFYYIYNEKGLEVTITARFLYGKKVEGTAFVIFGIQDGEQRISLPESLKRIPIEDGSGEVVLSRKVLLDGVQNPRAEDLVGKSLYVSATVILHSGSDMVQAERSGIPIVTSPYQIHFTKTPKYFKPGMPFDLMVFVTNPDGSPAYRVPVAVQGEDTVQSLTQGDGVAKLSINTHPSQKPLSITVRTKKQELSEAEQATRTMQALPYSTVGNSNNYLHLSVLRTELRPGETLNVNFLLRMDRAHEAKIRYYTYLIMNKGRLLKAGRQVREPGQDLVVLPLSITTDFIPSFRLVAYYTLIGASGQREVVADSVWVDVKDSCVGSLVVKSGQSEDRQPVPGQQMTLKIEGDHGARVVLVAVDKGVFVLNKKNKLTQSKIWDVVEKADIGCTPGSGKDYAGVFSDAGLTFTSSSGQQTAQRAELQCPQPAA
mutant C3M-51 (Arg1320->Gln), sequence (chain, as listed by the source, stated change not applied, chain 2 of 2): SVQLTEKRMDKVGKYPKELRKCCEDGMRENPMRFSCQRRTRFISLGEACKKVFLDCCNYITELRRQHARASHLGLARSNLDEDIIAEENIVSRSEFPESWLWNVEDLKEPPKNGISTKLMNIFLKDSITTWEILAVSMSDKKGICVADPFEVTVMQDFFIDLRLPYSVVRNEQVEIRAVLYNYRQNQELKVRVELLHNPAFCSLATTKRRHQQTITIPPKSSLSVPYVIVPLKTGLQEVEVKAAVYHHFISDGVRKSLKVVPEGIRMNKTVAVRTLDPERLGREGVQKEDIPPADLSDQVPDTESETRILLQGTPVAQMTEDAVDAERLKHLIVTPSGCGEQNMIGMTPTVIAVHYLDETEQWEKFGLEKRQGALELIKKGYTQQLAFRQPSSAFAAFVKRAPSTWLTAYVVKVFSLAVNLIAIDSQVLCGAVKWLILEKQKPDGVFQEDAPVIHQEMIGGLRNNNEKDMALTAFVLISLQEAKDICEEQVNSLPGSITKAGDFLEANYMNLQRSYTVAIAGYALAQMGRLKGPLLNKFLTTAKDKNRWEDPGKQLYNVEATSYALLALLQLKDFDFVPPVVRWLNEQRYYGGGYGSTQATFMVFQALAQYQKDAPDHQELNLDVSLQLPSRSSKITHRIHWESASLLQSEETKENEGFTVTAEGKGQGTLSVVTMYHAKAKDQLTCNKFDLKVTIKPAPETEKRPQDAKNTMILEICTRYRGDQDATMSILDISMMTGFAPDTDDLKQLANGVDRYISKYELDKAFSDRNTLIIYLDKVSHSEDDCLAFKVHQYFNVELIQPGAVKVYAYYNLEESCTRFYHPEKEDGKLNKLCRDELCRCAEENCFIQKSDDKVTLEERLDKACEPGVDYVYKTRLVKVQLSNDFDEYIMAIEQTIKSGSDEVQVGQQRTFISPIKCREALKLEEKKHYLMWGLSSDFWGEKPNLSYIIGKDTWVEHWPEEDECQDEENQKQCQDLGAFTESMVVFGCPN
mutant C3M-26 (Arg1303->Gln, Arg1320->Gln), sequence (chain, as listed by the source, stated change not applied, chain 1 of 2): as the sequence (chain, as listed by the source, stated change not applied, chain 1 of 2) above
mutant C3M-26 (Arg1303->Gln, Arg1320->Gln), sequence (chain, as listed by the source, stated change not applied, chain 2 of 2): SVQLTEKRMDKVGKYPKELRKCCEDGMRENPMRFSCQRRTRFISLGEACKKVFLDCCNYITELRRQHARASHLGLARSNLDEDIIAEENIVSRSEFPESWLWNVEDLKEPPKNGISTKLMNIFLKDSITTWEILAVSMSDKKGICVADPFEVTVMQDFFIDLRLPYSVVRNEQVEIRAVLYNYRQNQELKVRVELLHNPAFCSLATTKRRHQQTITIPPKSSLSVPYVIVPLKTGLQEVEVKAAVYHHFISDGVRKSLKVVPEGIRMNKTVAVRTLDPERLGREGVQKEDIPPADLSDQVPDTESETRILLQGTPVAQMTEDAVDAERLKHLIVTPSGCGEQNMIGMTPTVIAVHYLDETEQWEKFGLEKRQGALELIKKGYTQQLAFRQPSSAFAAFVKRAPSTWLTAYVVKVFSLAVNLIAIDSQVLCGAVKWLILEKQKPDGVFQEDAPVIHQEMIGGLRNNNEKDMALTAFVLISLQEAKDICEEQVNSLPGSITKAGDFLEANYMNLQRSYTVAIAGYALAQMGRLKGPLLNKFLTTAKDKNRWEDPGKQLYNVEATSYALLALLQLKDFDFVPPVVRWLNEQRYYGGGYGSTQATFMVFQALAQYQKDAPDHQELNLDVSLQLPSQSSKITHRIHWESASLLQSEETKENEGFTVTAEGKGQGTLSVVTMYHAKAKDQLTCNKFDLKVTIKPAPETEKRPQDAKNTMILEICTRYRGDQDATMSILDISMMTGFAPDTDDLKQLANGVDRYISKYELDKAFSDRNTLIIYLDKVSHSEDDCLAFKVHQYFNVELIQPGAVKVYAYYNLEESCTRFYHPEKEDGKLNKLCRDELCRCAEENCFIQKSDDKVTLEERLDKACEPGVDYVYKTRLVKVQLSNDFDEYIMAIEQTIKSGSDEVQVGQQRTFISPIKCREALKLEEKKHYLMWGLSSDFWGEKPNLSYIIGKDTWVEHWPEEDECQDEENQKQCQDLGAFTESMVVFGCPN
C3 mutant with tyr(Y) at position 1303 and glutamine at 1320, sequence (chain, as listed by the source mutant, chain 1 of 2): as the sequence (chain, as listed by the source, stated change not applied, chain 1 of 2) above
C3 mutant with tyr(Y) at position 1303 and glutamine at 1320, sequence (chain, as listed by the source mutant, chain 2 of 2): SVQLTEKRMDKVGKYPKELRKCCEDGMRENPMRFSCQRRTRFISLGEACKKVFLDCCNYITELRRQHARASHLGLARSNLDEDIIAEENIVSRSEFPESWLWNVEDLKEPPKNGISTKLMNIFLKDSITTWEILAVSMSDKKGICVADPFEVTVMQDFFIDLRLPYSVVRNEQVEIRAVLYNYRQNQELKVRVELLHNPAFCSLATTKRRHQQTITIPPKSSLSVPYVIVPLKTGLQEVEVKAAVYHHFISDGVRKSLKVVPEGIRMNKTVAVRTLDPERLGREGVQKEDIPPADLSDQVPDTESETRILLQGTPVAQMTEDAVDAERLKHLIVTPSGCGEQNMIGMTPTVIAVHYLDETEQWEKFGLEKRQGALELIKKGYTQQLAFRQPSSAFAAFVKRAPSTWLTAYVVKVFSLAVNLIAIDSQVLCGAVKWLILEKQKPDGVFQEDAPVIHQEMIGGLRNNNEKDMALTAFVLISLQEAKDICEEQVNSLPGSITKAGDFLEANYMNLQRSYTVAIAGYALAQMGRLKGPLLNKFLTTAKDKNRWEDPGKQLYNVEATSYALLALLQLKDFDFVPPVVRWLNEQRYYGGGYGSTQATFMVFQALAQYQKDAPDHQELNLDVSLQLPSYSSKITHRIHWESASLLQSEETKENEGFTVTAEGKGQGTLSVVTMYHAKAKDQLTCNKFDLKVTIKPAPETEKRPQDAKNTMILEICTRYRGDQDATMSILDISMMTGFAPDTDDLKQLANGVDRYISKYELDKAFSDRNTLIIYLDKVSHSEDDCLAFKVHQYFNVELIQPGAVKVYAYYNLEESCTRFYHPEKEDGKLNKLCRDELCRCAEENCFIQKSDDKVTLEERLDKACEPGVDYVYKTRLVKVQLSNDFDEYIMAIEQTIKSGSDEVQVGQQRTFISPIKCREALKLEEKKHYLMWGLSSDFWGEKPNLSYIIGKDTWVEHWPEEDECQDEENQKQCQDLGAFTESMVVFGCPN

B1: factor I (protein)
chain: KVTYTSQEDLVEKKCLAKKYTHLSCDKVFCQPWQRCIEGTCVCKLPYQCPKNGTAVCATNRRSFPTYCQQKSLECLHPGTKFLNNGTCTAEGKFSVSLKHGNTDSEGIVEVKLVDQDKTMFICKSSWSMREANVACLDLGFQQGADTQRRFKLSDLSINSTECLHVHCRGLETSLAECTFTKRRTMGYQDFADVVCYTQKADSPMDDFFQCVNGKYISQMKACDGINDCGDQSDELCCKACQGKGFHCKSGVCIPSQYQCNGEVDCITGEDEVGCAGFASVTQEETEILTADMDAERRRIKSLLPKLSCGVKNRMHIRRKRIVGGKRAQLGDLPWQVAIKDASGITCGGIYIGGCWILTAAHCLRASKTHRYQIWTTVVDWIHPDLKRIVIEYVDRIIFHENYNAGTYQNDIALIEMKKDGNKKDCELPRSIPACVPWSPYLFQPNDTCIVSGWGREKDNERVFSLQWGEVKLISNCSKFYGNRFYEKEMECAGTYDGSIDACKGDSGGPLVCMDANNVTYVWGVVSWGENCGKPEFPGVYTKVANYFDWISYHVGRPFISQYNV
[1]
  Factor I-mediated cleavage at position 1303 (35S label, SDS-PAGE, autoradiography): cleavage occurs in the order: arg(R)>tyr(Y)>cys(C) and trp(W)>gln(Q)>gly(G) and glu(E)
[2]
  Factor I-mediated cleavage at position 1303 (35S label, SDS-PAGE, autoradiography): cleavage occurs in the order: arg(R)>tyr(Y)>cys(C) and trp(W)>gln(Q)>gly(G) and glu(E)
  cleavage of the C3b-like product by factors H and I (immunoprecipitation, western blot): the absence of a 43 kDa band indicates that it is not cleaved at the mutated Gln1320
[3]
  Factor I-mediated cleavage at position 1303 (35S label, SDS-PAGE, autoradiography): cleavage occurs in the order: arg(R)>tyr(Y)>cys(C) and trp(W)>gln(Q)>gly(G) and glu(E)
[4]
  Factor I-mediated cleavage at position 1303 (35S label, SDS-PAGE, autoradiography): cleavage occurs in the order: arg(R)>tyr(Y)>cys(C) and trp(W)>gln(Q)>gly(G) and glu(E)
[5]
  cleavage of the C3b-like product by factors H and I (immunoprecipitation, western blot): no 68 kDa band was present, showing that this mutant is resistant to cleavage at the mutated Gln1303
[6]
  cleavage of the C3b product by factors H and I (immunoprecipitation, western blot): the C3b product is further cleaved by endogenous enzymes in 1-B or added factors H and I in 1-D. The 43 kDa band indicates cleavage at Arg1320, and the 68 kDa band (visible in longer exposures) indicates cleavage at Arg1303
[7]
  Factor I-mediated cleavage at position 1303 (35S label, SDS-PAGE, autoradiography): cleavage occurs in the order: arg(R)>tyr(Y)>cys(C) and trp(W)>gln(Q)>gly(G) and glu(E)
  cleavage of the C3b-like product by factors H and I (immunoprecipitation, western blot): It was also very resistant to the additional factors H and I (3-D) in comparison with the unmutated C3 (1) and other mutants (2 and 4)
[8]
  Factor I-mediated cleavage at position 1303 (35S label, SDS-PAGE, autoradiography): cleavage occurs in the order: arg(R)>tyr(Y)>cys(C) and trp(W)>gln(Q)>gly(G) and glu(E)
[9]
  Factor I-mediated cleavage at position 1303 (35S label, SDS-PAGE, autoradiography): cleavage occurs in the order: arg(R)>tyr(Y)>cys(C) and trp(W)>gln(Q)>gly(G) and glu(E)
